Source: paper PMC12404239

Target: CoV OC43 spike glycoprotein (S) (human coronavirus OC43) (UniProt P36334)
Assay: […], running buffer TBS, […]

## CoV OC43 spike glycoprotein (S) (from UniProt P36334 14-1263) (natural protein)
  stoichiometry N: 3
